Measurements published in patent publication US20120171123A1, “USES AND COMPOSITIONS FOR TREATMENT OF RHEUMATOID ARTHRITIS” (priority 2006, published 2012).

Tests used:
[1] = system: adult patients with RA; test: Study 1: change in C-reactive protein at Week 12; format: in vivo, human
Experimental: 407 patients with active RA enrolled in the 2 study arms. Of these patients, 299 (73.5%) patients completed the study until Week 52 and were evaluated.
Patients were grouped into three cohorts based on baseline CRP concentrations: low (<1 mg/dL); intermediate (1-4 mg/dL); and high (>4 mg/dL). Analyses were further conducted in two categories of patients according to their change in CRP concentrations at Week 12: those with a ≧20% decrease in CRP from baseline; or those with a <20% decrease in CRP from baseline. The following efficacy and radiographic measures were analyzed at Week 52 in the three baseline CRP categories and in the two Week 12 change in CRP categories: DAS28, ACR 20/50/70, Health assessment questionnaire (HAQ), and Total Sharp score (TSS).

[2] = system: patients with early vs. long-standing RA; test: Safety of adalimumab in global clinical trials, early vs long-standing RA (serious adverse event rates, demyelinating disease, lymphoma)
From the text: (§1) Study J was a 2-year randomized controlled trial in patients with early RA (disease duration<3 years). Participants in these clinical trials and in other phase Mb studies, were routinely evaluated for safety. Reports of serious adverse events (SAE) were tabulated using MedDRA coding by events per 100-patient-years (E/100PY). SAE rates were compared with respect to disease duration between patients with early (<3 yrs) and long-standing RA.

[3] = system: patients with RA; test: RAPID (routine Apgar-like patient index datasheet) score in 4 adalimumab clinical trials; format: in vivo, human; conditions: for RAPID (R326), Difference: baseline vs endpoint
Experimental: All 1,391 patients in these trials were evaluated in this study. The RAPID index is based on patient self-report data on a Health Assessment Questionnaire (HAQ), recalibrated to 0-10, based on the following criteria: physical function (0-3): 0=0-0.25, 1=0.26-0.75, 2=0.76-1.5, and 3=1.51-3.0; pain visual analog scale (VAS) (0-3): 0=0-10, 1=11-30, 2=31-60, and 3=61-100; and patient's global status VAS (0-4): 0=0-10, 1=11-25, 2=26-50, 3=51-75, and 4=76-100. All patients were classified at baseline as having a DAS28<5.1 or ≧5.1 or RAPID <5.0 or ≧5.0, the higher values for each indicating severe disease. DAS28 was calculated using swollen joint count, tender joint count, patient's global assessment of disease activity and C-reactive protein (CRP) concentration. Spearman rank correlations and box plots to compare RAPID scores with DAS28 were also analyzed.
Several rescalings of the physical function, pain, and patient's global assessment scales were calculated. The physical function scale is scored 0-3, and was rescaled to 0-3. The pain visual analog scale (VAS) is scored 0-10 and was also rescaled to 0-3. The global VAS is scored 0-10 and was rescaled to 0-4. Thus, the total of the 3 scores ranges from 0-10. Scores were calculated for both continuous and categorical indices. The DAS28 was calculated from the SJC, TJC, patient's global score, and C-reactive protein.

[4] = system: patients with long-standing RA; test: Study 4: change in dosing of concomitant corticosteroids and methotrexate; format: in vivo, human
From the text: The mean corticosteroid dose (mg/day) at baseline was 5.56, where the mean corticosteroid dose (mg/day) at the final dose was 3.57 (p<0.0001 (determined by Wilcoxon's signed rank test)).
There was also a change in the dosing of concomitant methotrexate for RA patients in the study being treated with adalimumab. […] For only 8% of patients was the dose of mtx increased.

[5] = system: patients with long-standing RA; test: Study 4: CRP; format: in vivo, human
From the text: Percentage change of mean clinical improvement from baseline us describe in Table 15 below.

[6] = system: patients with active rheumatoid arthritis; conditions: Study A (N=2008), 12 weeks; cited from earlier work
[7] = system: MTX-naïve adult patients with active, early RA (<3 years); conditions: in vivo
From the text: as §1

[8] = All Trials adalimumab (4870 PY), data for registration
[9] = Combined (long-standing + early RA)
[10] = Early RA, Study J (N=542; 917 PY)
[11] = Early RA, Study J, N (Exposure) 542 (917)
[12] = Long-standing RA, 31-Aug.-2004 (N=10,050; 12,066 PY)
[13] = Long-standing RA, 31-Aug.-2004, N (Exposure) 10,050 (12,066)
[14] = Study 2 (adalimumab monotherapy)
[15] = Study K (adalimumab with other DMARDs)

Compound: CN(Cc1cnc2nc(N)nc(N)c2n1)c1ccc(C(=O)N[C@@H](CCC(=O)O)C(=O)O)cc1 [mtx alone, methotrexate]
- patients with <20% decrease in CRP [1]: 67%
- patients with ≧20% decrease in CRP [1]: 33%

Compound: adalimumab: human anti-TNF mAb (HUMIRA, Abbott Laboratories), described in U.S. Pat. No. 6,090,382 as D2E7
- Malignancies [2, 8]: 0.006 N/PY
- Pneumonia [2, 8]: 0.008 N/PY
- TB [2, 8]: 0.003 N/PY
- Total lymphomas, Expected [2, 9]: 5.16 cases
- Total lymphomas, Observed [2, 9]: 15 cases
- Total lymphomas, SIR [2, 9]: 2.91
- Total lymphomas, Expected ([2]; Early RA): 0.37 cases
- Total lymphomas, Observed ([2]; Early RA): 0 cases
- Total lymphomas, SIR ([2]; Early RA): 0
- cases of lymphoma ([2]; Early RA): No cases
- Congestive Heart Failure rate [2, 10]: 0.11 E/100PY
- Demyelinating Diseases rate [2, 10]: 0.00 E/100PY
- Lymphoma rate [2, 10]: 0.00 E/100PY
- Pancytopenia rate [2, 10]: 0.00 E/100PY
- Pneumonia (serious) rate [2, 10]: 0.55 E/100PY
- SLE/Lupus-like Syndrome rate [2, 10]: 0.00 E/100PY
- Septic Arthritis rate [2, 10]: 0.22 E/100PY
- Serious Infections rate [2, 10]: 1.85 E/100PY
- Tuberculosis rate [2, 10]: 0.11 E/100PY
- Urinary Tract Infections (serious) rate [2, 10]: 0.11 E/100PY
- Cases of Guillain-Barre syndrome [2, 11]: 0 cases
- Cases of Multiple sclerosis [2, 11]: 0 cases
- Cases of Non-specific demyelination [2, 11]: 0 cases
- Hodgkin's, Expected ([2]; Long-standing RA): 0.36 cases
- Hodgkin's, Observed ([2]; Long-standing RA): 1 cases
- Hodgkin's, SIR ([2]; Long-standing RA): 2.78
- NHL, Expected ([2]; Long-standing RA): 4.32 cases
- NHL, Observed ([2]; Long-standing RA): 14 cases
- NHL, SIR ([2]; Long-standing RA): 3.24
- Total lymphomas, Expected ([2]; Long-standing RA): 4.68 cases
- Total lymphomas, Observed ([2]; Long-standing RA): 15 cases
- Total lymphomas, SIR ([2]; Long-standing RA): 3.21
- Congestive Heart Failure rate [2, 12]: 0.26 E/100PY
- Demyelinating Diseases rate [2, 12]: 0.07 E/100PY
- Lymphoma rate [2, 12]: 0.11 E/100PY
- Pancytopenia rate [2, 12]: 0.02 E/100PY
- Pneumonia (serious) rate [2, 12]: 0.87 E/100PY
- SLE/Lupus-like Syndrome rate [2, 12]: 0.06 E/100PY
- Septic Arthritis rate [2, 12]: 0.46 E/100PY
- Serious Infections rate [2, 12]: 4.79 E/100PY
- Tuberculosis rate [2, 12]: 0.24 E/100PY
- Urinary Tract Infections (serious) rate [2, 12]: 0.38 E/100PY
- Cases of Guillain-Barre syndrome [2, 13]: 2 cases
- Cases of Multiple sclerosis [2, 13]: 4 cases
- Cases of Non-specific demyelination [2, 13]: 2 cases
- lymphoma combined SIR ([2]; all RA patients in adalimumab clinical trials, 95% CI 1.63-4.80): 2.91
- cases of demyelinating diseases ([2]; early RA (Study J)): No cases
- cases of demyelinating diseases ([2]; long-standing RA, through Aug. 31, 2004): Eight
- cases of lymphoma ([2]; long-standing RA, through August 2004): Fifteen
- RAPID (R326), Endpoint ([3]; Study 1 (adalimumab with MTX)): 3.86
- RAPID (R326), Difference ([3]; Study 1 (adalimumab with MTX)): 3.22
- RAPID (R326), Endpoint [3, 14]: 5.88
- RAPID (R326), Difference [3, 14]: 2.70
- RAPID (R326), Endpoint ([3]; Study I (adalimumab with MTX)): 3.84
- RAPID (R326), Difference ([3]; Study I (adalimumab with MTX)): 3.43
- RAPID (R326), Endpoint [3, 15]: 4.22
- RAPID (R326), Difference [3, 15]: 2.79
- mean concomitant corticosteroid dose ([4]; at final dose (baseline 5.56)): 3.57 mg/day
- mean concomitant mtx dose ([4]; at final dose of adalimumab (baseline 15.79)): 13.81 mg/week
- patients with dose reduction of steroids ([4]; n=294): 29%
- patients with increased steroid dose ([4]; n=294): 6%
- patients with unchanged steroid dose ([4]; n=294): 40%
- patients with increased mtx dose ([4]; n=546): 8%
- patients with mtx dose reduction ([4]; n=546): 32%
- patients with unchanged mtx dose ([4]; n=546): 60%
- patients able to discontinue steroids ([4]; patients on concomitant corticosteroids, n=294): 24%
- CRP, % change of mean clinical improvement from baseline ([5]; 6 months): 14%
- CRP, % change of mean clinical improvement from baseline ([5]; 12 months): 33%
- CRP, % change of mean clinical improvement from baseline ([5]; 24 months): 29%
- CRP, % change of mean clinical improvement from baseline ([5]; 36 months): 28%
- CRP, % change of mean clinical improvement from baseline ([5]; 48 months): 37%
- DAS28 (mean), change from baseline [6]: −2.1
- All infectious AE [7]: 110 Events/100-PY
- Demyelination [7]: 0.0 Events/100-PY
- Lymphoma [7]: 0.0 Events/100-PY
- Malignancies [7]: 0.9 Events/100-PY
- Pancytopenia [7]: 0.0 Events/100-PY
- Serious AE [7]: 21.1 Events/100-PY
- Serious Infectious AE [7]: 0.7 Events/100-PY
